For this assay, the target named is T1, ILT4 receptor on dendritic cells of ILT4 transgenic mice (UniProt Q8N423 22-597, limits assumed).
T1 construct: whole, on cells; also called LILRB2; CD85d
The assay can be described thus: immunoprecipitation with anti-ILT4 antibody, immunoblot with anti-Csk antibody. (In general: Immunoblotting shows a protein as a band on a membrane.)

Data on one molecule can be found in patent publication US20110135672A1 (MEDICAL COLLEGE OF GEORGIA RESEARCH INSTITUTE INC GEORGIA, published 2011).

T1 sequence (Q8N423 22-597 limits assumed): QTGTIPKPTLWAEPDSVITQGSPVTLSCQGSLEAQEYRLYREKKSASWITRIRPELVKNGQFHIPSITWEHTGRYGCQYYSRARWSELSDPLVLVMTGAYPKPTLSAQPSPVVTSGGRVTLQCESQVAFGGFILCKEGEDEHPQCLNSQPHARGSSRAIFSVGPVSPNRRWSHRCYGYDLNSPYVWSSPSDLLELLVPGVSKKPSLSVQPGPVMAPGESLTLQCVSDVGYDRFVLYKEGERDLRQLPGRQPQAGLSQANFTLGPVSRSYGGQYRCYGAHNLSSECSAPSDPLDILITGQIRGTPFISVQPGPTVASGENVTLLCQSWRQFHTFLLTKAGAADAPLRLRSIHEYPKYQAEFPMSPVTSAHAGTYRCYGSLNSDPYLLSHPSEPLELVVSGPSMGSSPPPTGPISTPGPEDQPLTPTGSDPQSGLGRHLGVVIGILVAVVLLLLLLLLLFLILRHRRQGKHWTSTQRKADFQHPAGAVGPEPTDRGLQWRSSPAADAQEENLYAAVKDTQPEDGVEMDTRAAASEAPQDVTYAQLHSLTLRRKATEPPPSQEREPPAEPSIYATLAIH
Experimental: The pellets from 5×10⁶ untreated DCs and DCs treated with HLA-G ligands and LPS were lysed in 1 ml RIPA buffer and precleared several times with Sepharose-coupled protein A (50% wt/vol slurry). Proteins were immunoprecipitated with saturating amounts of anti-ILT4 mAb and protein G Sepharose (Amersham Biosciences). Immunoprecipitation experiments were performed using several ILT4-specific antibodies, including polyclonal anti-ILT4 (C-12), anti-ILT4 (N-14), anti-ILT4 (P-14), anti-ILT (H-300), and anti-ILT4 (42D1) mAb (all from Santa Cruz Biotechnology, Santa Cruz, Calif.). […] The immunoblot was reprobed with anti-SHP-1 and anti-SHP-2 antibodies (both Upstate), and anti-Csk antibody (Santa Cruz Biotechnology). Signals were developed using the enhanced chemoluminescence (ECL) system (Amersham Biosciences). In some cases, densitometric scans of bands were obtained to determine the extent of ILT4-mediated signal inhibition.

B1: C-terminal Src kinase (Csk) (enzyme, mouse, UniProt P41241 2-450, looked up)
chain: SAIQAAWPSGTECIAKYNFHGTAEQDLPFCKGDVLTIVAVTKDPNWYKAKNKVGREGIIPANYVQKREGVKAGTKLSLMPWFHGKITREQAERLLYPPETGLFLVRESTNYPGDYTLCVSCEGKVEHYRIMYHASKLSIDEEVYFENLMQLVEHYTTDADGLCTRLIKPKVMEGTVAAQDEFYRSGWALNMKELKLLQTIGKGEFGDVMLGDYRGNKVAVKCIKNDATAQAFLAEASVMTQLRHSNLVQLLGVIVEEKGGLYIVTEYMAKGSLVDYLRSRGRSVLGGDCLLKFSLDVCEAMEYLEGNNFVHRDLAARNVLVSEDNVAKVSDFGLTKEASSTQDTGKLPVKWTAPEALREKKFSTKSDVWSFGILLWEIYSFGRVPYPRIPLKDVVPRVEKGYKMDAPDGCPPAVYEVMKNCWHLDAATRPTFLQLREQLEHIKTHELHL
Regarding B1, the binding result is reported as “no binding”.
